From article PMC3601010, “The complete N-terminal extension of heparin cofactor II is required for maximal effectiveness as a thrombin exosite 1 ligand” (BMC Biochemistry, 2013) come the findings set out here.

In test [1] the target is Biotinylated HCII 1-75 (human). In words: SPR; BIAcore X, 25°C; biotinylated HCII 1-75 on streptavidin-coated chip; thrombin 0-30 μM flowed at 20 μL/minute in 10 mM HEPES, 150 mM NaCl, 0.005% Tween-20, pH 7.7; one site binding model of plateau responses. (In general: In SPR one partner is held on a chip, and binding of the other changes the refractive index at the surface.)

Test [2] concerns the target α-thrombin (UniProt P00734).
In test [3] the target is α-thrombin (UniProt P00734). In words: SPR; competition: BIAcore X, 25°C; biotinylated HCII 1-75 on streptavidin-coated chip; peptides combined with 250 nM thrombin immediately before flowing over the chip; Ki from IC50 and the KD of 340 nM.
The target of test [4] is α-thrombin (UniProt P00734). This is another data set of the same source.
Test [5] deals with α-thrombin (UniProt P00734). In words: ELISA; competition: HCII 1-75 immobilised on microtiter wells; competitor peptides added with 5 nM α-thrombin; ratio of absorbance with and without competitor; IC50 by linear regression of log-transformed plots.
Test [6] has as its target α-thrombin (UniProt P00734). This is another data set of the same source.

For “FPR-ck-thrombin (thrombin inactivated at its active site using D-Phe-L-Pro-L-Arg chloromethylketone) (from UniProt P00734 364-622) (enzyme)”, the Kd in test [1] is 330 nM.

The substance “Biotinylated HCII 1-75 (domain or fragment)” had a concentration required to double the thrombin clotting time (data not shown) with α-thrombin [2] of 11.7 µM.

Regarding “HCII 1-75 (recombinant peptide containing the first 75 residues of human heparin cofactor II and a nonapeptide N-terminal MGSH6 tag) (domain or fragment)”, the Ki in the test with α-thrombin [3] is 2600 nM. Moreover, in the test with α-thrombin [2], the concentration required to double the thrombin clotting time, unmodified polypeptide compared with the biotinylated one (data not shown) amounted to 12.8 µM. In the test with α-thrombin [4], the fold reduction of the apparent second-order rate constant of inhibition of 14 nM thrombin by 140 nM plasma-derived HCII with 55 μg/mL standard heparin, 250 μM peptide (Figure 5A) was found to be 2.8 fold and the fold reduction of the apparent second-order rate constant of inhibition of thrombin by plasma-derived HCII with 1.4 μM dermatan sulfate, 250 μM peptide (Figure 5B) is 7 fold. The IC50 with α-thrombin [5] is 11000 nM. The concentration required to double the thrombin clotting time of diluted citrated human plasma with α-thrombin [6] was 13 µM.

On to “sulfo-Hir 54-65 (synthetic peptide containing the C-terminal 12 residues of hirudin variant 1, with Tyr63 sulfated) (from UniProt P01050 54-65)”, for which, in the test with α-thrombin [3], the inhibition constant Ki is 54 nM. The IC50 in the test with α-thrombin [5] was found to be 140 nM. Also, the concentration required to double the thrombin clotting time of diluted citrated human plasma with α-thrombin [6] was 0.15 µM.

“α-thrombin (from UniProt P00734 364-622) (enzyme)” displayed a Kd in test [1] of 340 nM.

For orientation: Kd means a measure of binding affinity in units of concentration. A lower Kd goes with tighter binding. In general, Ki refers to the equilibrium dissociation constant of an inhibitor or competing ligand from its target. The IC50 is the concentration that inhibits the measured activity by half.
